Measurements as given in the supplement of paper PMC10598134.
± gives the standard deviation.

Experiment: collision cross section of modified peptide (TIMS, N2, iRT-aligned); higher = larger / more extended gas-phase ion
Outline: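 Collision cross section was derived from the Mason-Schamp equation. Each value averages 1–3 technical replicates of the most abundant feature per charge state, measured on a timsTOF Pro/HT in dda-PASEF mode (nitrogen, ~2.4 mbar) after a 120-min nanoflow C18 gradient at 60 °C. Synthetic peptide pools (~100 fmol/µL in 2% acetonitrile/0.1% formic acid, iRT standard spiked 1:40) were identified with MaxQuant, and 1/K0 was calibrated with three reference ions and aligned run-wise to the median iRT peptide deviation.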

[1] = charge state: 2, modification: Glutarylation
[2] = charge state: 3, modification: Glutarylation
[3] = charge state: 2, modification: Hydroxyproline
[4] = charge state: 2, modification: Malonyl
[5] = charge state: 2, modification: GlyGly (K)
[6] = charge state: 3, modification: GlyGly (K)
[7] = charge state: 2, modification: Nitro (Y)
[8] = charge state: 2, modification: Formyl
[9] = charge state: 3, modification: Trimethyl (K)
[10] = charge state: 2, modification: Butyryl
[11] = charge state: 3, modification: Butyryl
[12] = charge state: 2, modification: Citrullination (R)
[13] = charge state: 2, modification: Trimethyl (K)
[14] = charge state: 2, modification: HexNAc (ST)
[15] = charge state: 2, modification: Phospho (Y)
[16] = charge state: 2, modification: Succinyl
[17] = charge state: 3, modification: Succinyl
[18] = charge state: 2, modification: Biotin
[19] = charge state: 3, modification: Methyl (R)
[20] = charge state: 3, modification: Dimethyl (K)
[21] = charge state: 2, modification: Crotonyl
[22] = charge state: 3, modification: Hydroxyproline
[23] = charge state: 2, modification: Propionyl
[24] = charge state: 2, modification: Methyl (K)
[25] = charge state: 3, modification: Methyl (K)
[26] = charge state: 3, modification: Citrullination (R)
[27] = charge state: 2, modification: Dimethyl (K)
[28] = charge state: 2, modification: hydroxyisobutyryl
[29] = charge state: 3, modification: hydroxyisobutyryl
[30] = charge state: 3, modification: HexNAc (ST)

## SSGPGGQNVNKVNSK [_SSGPGGQNVNK(Gluratylation)VNSK_]
[1]
  collision cross section: 409.46 ± 0.95 Å²
[2]
  collision cross section: 446.64 ± 1.9 Å²

## GEIGPPGPR [_GEIGPP(Hydroxyproline)GPR_]
[3]
  collision cross section: 319.92 ± 1.1 Å²

## IQQELQTAKK [_IQQELQTAK(Malonyl)K_]
[4]
  collision cross section: 373.35 ± 6 Å²

## PGNSGIR [_P(Hydroxyproline)GNSGIR_]
[3]
  collision cross section: 280.46 ± 3.1 Å²

## SKLLFSNTAAQK [_SK(Gluratylation)LLFSNTAAQK_]
[1]
  collision cross section: 403.03 ± 0.5 Å²

## VTLEVGKVIQQGR [_VTLEVGK(GlyGly (K))VIQQGR_]
[5]
  collision cross section: 431.32 ± 0.96 Å²
[6]
  collision cross section: 486.06 ± 1.6 Å²

## AQSYAQQLGR [_AQSY(Nitro (Y))AQQLGR_]
[7]
  collision cross section: 354.17 ± 0.17 Å²

## DYSSGFGGKYGVQADR [_DYSSGFGGK(Formyl)YGVQADR_]
[8]
  collision cross section: 429.11 ± 0.79 Å²

## TQDQISNIKYHEEFEK [_TQDQISNIK(Gluratylation)YHEEFEK_]
[2]
  collision cross section: 554.46 ± 0.14 Å²

## YEQEHAAIQDKLFQVAK [_YEQEHAAIQDK(Trimethyl (K))LFQVAK_]
[9]
  collision cross section: 561.55 ± 0.91 Å²

## SSFAYKDQNENR [_SSFAYK(Butyryl)DQNENR_]
[10]
  collision cross section: 402.63 ± 0.85 Å²
[11]
  collision cross section: 462.59 ± 3.8 Å²

## RGATPPAPPR [_R(Citrullination (R))GATPPAPPR_]
[12]
  collision cross section: 332.88 ± 2.4 Å²

## VNIGQGSHPQKVK [_VNIGQGSHPQK(Trimethyl (K))VK_]
[13]
  collision cross section: 405.12 ± 1.9 Å²
[9]
  collision cross section: 473.39 ± 2.7 Å²

## TSAVSSQANSQPPVQVSVK [_TSAVSSQANSQPPVQVS(HexNAc (ST))VK_]
[14]
  collision cross section: 471.02 Å²

## CSVLAAANPVYGR [_CSVLAAANPVY(Phospho (Y))GR_]
[15]
  collision cross section: 407.91 ± 1.2 Å²

## GEVQVSDKER [_GEVQVSDK(Acetyl (K))ER_]
Charge state: 2, modification: Acetyl (K)
  collision cross section: 356.44 ± 0.96 Å²

## YEQEHAAIQDKLFQVAK [_YEQEHAAIQDK(Butyryl)LFQVAK_]
[11]
  collision cross section: 517.33 ± 1 Å²

## IHVQSSSDSSDEPAEKR [_IHVQSSSDSSDEPAEK(Succinyl)R_]
[16]
  collision cross section: 452.62 ± 0.81 Å²
[17]
  collision cross section: 507.09 ± 1.9 Å²

## LQDVSGQLSSSKK [_LQDVSGQLSSSK(Biotin)K_]
[18]
  collision cross section: 425.22 ± 2.6 Å²
Charge state: 3, modification: Biotin
  collision cross section: 506.69 Å²

## LDINTNTYTSQDLK [_LDINTNTYTS(HexNAc (ST))QDLK_]
[14]
  collision cross section: 444.16 ± 0.035 Å²

## LLFSNTAAQKLR [_LLFSNTAAQK(GlyGly (K))LR_]
[5]
  collision cross section: 433.64 ± 0.96 Å²
[6]
  collision cross section: 492.29 ± 2 Å²

## YEQEHAAIQDKLFQVAK [_YEQEHAAIQDK(Gluratylation)LFQVAK_]
[2]
  collision cross section: 519.4 ± 1.2 Å²

## GSGLGARGSSYGVTSTESYK [_GSGLGAR(Methyl (R))GSSYGVTSTESYK_]
[19]
  collision cross section: 519.94 ± 0.91 Å²

## GADFLVTEVENGGSLGSKK [_GADFLVTEVENGGSLGSK(Dimethyl (K))K_]
[20]
  collision cross section: 539.44 Å²

## PATSYVR [_PATSY(Phospho (Y))VR_]
[15]
  collision cross section: 328.8 ± 0.068 Å²

## SKLLFSNTAAQK [_SK(Crotonyl)LLFSNTAAQK_]
[21]
  collision cross section: 402.06 ± 0.79 Å²

## FGTINIVHPKLGSYTK [_FGTINIVHPK(Trimethyl (K))LGSYTK_]
[9]
  collision cross section: 502.05 ± 2.2 Å²

## GFPGIQGRK [_GFP(Hydroxyproline)GIQGRK_]
[3]
  collision cross section: 339.07 Å²
[22]
  collision cross section: 407.07 Å²

## TVSKVDDFLANEAK [_TVSK(Biotin)VDDFLANEAK_]
[18]
  collision cross section: 445.28 ± 0.73 Å²

## TLDEILQEKK [_TLDEILQEK(Propionyl)K_]
[23]
  collision cross section: 380.38 Å²

## YEQEHAAIQDKLFQVAK [_YEQEHAAIQDK(Malonyl)LFQVAK_]
Charge state: 3, modification: Malonyl
  collision cross section: 515.74 ± 1.8 Å²

## DDSFLGKLGGTLAR [_DDSFLGK(Formyl)LGGTLAR_]
[8]
  collision cross section: 408.49 ± 1.1 Å²

## SYSVGASGSSSR [_SY(Nitro (Y))SVGASGSSSR_]
[7]
  collision cross section: 351.9 ± 1.2 Å²

## GHYTIGK [_GHY(Nitro (Y))TIGK_]
[7]
  collision cross section: 323.5 ± 0.72 Å²

## PANEKATDDYHYEK [_PANEK(Formyl)ATDDYHYEK_]
[8]
  collision cross section: 435.25 ± 0.72 Å²
Charge state: 3, modification: Formyl
  collision cross section: 497.77 ± 2.4 Å²

## AAINQKLIETGER [_AAINQK(Methyl (K))LIETGER_]
[24]
  collision cross section: 414.21 ± 2.1 Å²
[25]
  collision cross section: 471.88 ± 4.4 Å²

## TAIQAAGYPDK [_TAIQAAGY(Nitro (Y))PDK_]
[7]
  collision cross section: 354.49 ± 0.55 Å²

## SLGEPAAGEGSAKR [_SLGEPAAGEGSAK(Malonyl)R_]
[4]
  collision cross section: 366.04 ± 1.1 Å²

## AAYQAAIRGVGSAQSR [_AAYQAAIR(Methyl (R))GVGSAQSR_]
Charge state: 2, modification: Methyl (R)
  collision cross section: 442.78 ± 1 Å²
[19]
  collision cross section: 510.48 ± 1.7 Å²

## VGLQVVAVKAPGFGDNR [_VGLQVVAVK(Trimethyl (K))APGFGDNR_]
[13]
  collision cross section: 473 Å²
[9]
  collision cross section: 497.24 ± 1.6 Å²

## VGLQVVAVKAPGFGDNR [_VGLQVVAVK(GlyGly (K))APGFGDNR_]
[5]
  collision cross section: 471.7 ± 1.6 Å²
[6]
  collision cross section: 536.75 ± 1.1 Å²

## VFIGNLNTLVVKK [_VFIGNLNTLVVK(Malonyl)K_]
[4]
  collision cross section: 419.59 ± 0.57 Å²

## AAYQAAIRGVGSAQSR [_AAYQAAIR(Citrullination (R))GVGSAQSR_]
[12]
  collision cross section: 418.72 ± 0.97 Å²
[26]
  collision cross section: 501.27 ± 7.8 Å²

## KYEEIDNAPEER [_K(GlyGly (K))YEEIDNAPEER_]
[5]
  collision cross section: 416.44 ± 0.85 Å²
[6]
  collision cross section: 499.05 ± 3 Å²

## FLQEFYQDDELGKK [_FLQEFYQDDELGK(Dimethyl (K))K_]
[27]
  collision cross section: 456.43 ± 1.8 Å²
[20]
  collision cross section: 499.62 ± 0.75 Å²

## SDSGKPYYYNSQTK [_SDSGK(Malonyl)PYYYNSQTK_]
[4]
  collision cross section: 422.4 ± 0.57 Å²

## VFIGNLNTLVVKKK [_VFIGNLNTLVVK(Methyl (K))KK_]
[25]
  collision cross section: 483.02 ± 5.9 Å²

## KFGVLSDNFK [_K(GlyGly (K))FGVLSDNFK_]
[5]
  collision cross section: 380.5 ± 0.25 Å²
[6]
  collision cross section: 435.06 ± 2 Å²

## DSSPTTNSKLSALQR [_DSSPTTNSK(hydroxyisobutyryl)LSALQR_]
[28]
  collision cross section: 437.4 ± 0.29 Å²
[29]
  collision cross section: 502.1 ± 2.1 Å²

## VDVEVPDVSLEGPEGKLK [_VDVEVPDVSLEGPEGK(Succinyl)LK_]
[16]
  collision cross section: 456.12 ± 0.34 Å²
[17]
  collision cross section: 501.13 ± 1.5 Å²

## ANEKTESSSAQQVAVSR [_ANEK(Crotonyl)TESSSAQQVAVSR_]
[21]
  collision cross section: 431.52 ± 7.9 Å²
Charge state: 3, modification: Crotonyl
  collision cross section: 536.98 ± 2.1 Å²

## DSSPTTNSKLSALQR [_DSSPTTNSK(Dimethyl (K))LSALQR_]
[27]
  collision cross section: 423.14 ± 1.1 Å²
[20]
  collision cross section: 472.53 ± 1.6 Å²

## TQDQISNIKYHEEFEK [_TQDQISNIK(hydroxyisobutyryl)YHEEFEK_]
[28]
  collision cross section: 492.05 Å²
[29]
  collision cross section: 557.98 ± 1.2 Å²

## GPKGQQGEPGPK [_GPKGQQGEP(Hydroxyproline)GPK_]
[3]
  collision cross section: 357.43 ± 1.4 Å²
[22]
  collision cross section: 444.16 ± 2 Å²

## LAEEENKAK [_LAEEENK(Propionyl)AK_]
[23]
  collision cross section: 352.31 ± 0.33 Å²

## EPFSGDHSADGFEVTSR [_EPFS(HexNAc (ST))GDHSADGFEVTSR_]
[30]
  collision cross section: 513.98 ± 1.8 Å²

## TLDEILQEKK [_TLDEILQEK(hydroxyisobutyryl)K_]
[28]
  collision cross section: 386.54 ± 0.81 Å²

## ITLSKHQNVQLPR [_ITLSK(Trimethyl (K))HQNVQLPR_]
[9]
  collision cross section: 492.22 ± 3.3 Å²

## DAIHFYNKSLAEHR [_DAIHFYNK(hydroxyisobutyryl)SLAEHR_]
[29]
  collision cross section: 512.82 ± 2.8 Å²

## LGSPSGKTGTCR [_LGSPSGK(Malonyl)TGTCR_]
[4]
  collision cross section: 365.24 ± 0.013 Å²

## ASNAAVKLAESK [_ASNAAVK(GlyGly (K))LAESK_]
[5]
  collision cross section: 395.25 ± 1.5 Å²
[6]
  collision cross section: 457.62 ± 1.1 Å²

## GVEAVGSYAENQR [_GVEAVGSY(Phospho (Y))AENQR_]
[15]
  collision cross section: 388.79 ± 0.77 Å²
Charge state: 3, modification: Phospho (Y)
  collision cross section: 472.71 ± 0.98 Å²

## NLVTGDHIPTPQDLPQR [_NLVT(HexNAc (ST))GDHIPTPQDLPQR_]
[30]
  collision cross section: 500.97 Å²

## GIGRGTVQALHATGAR [_GIGR(Citrullination (R))GTVQALHATGAR_]
[12]
  collision cross section: 453.22 ± 0.95 Å²
[26]
  collision cross section: 491.89 ± 1.9 Å²

## DAEAAEATAEGALKAEK [_DAEAAEATAEGALK(Dimethyl (K))AEK_]
[27]
  collision cross section: 461.24 ± 1.8 Å²
[20]
  collision cross section: 536.26 ± 0.61 Å²

## YSTSGSSGLTTGK [_Y(Nitro (Y))STSGSSGLTTGK_]
[7]
  collision cross section: 371.62 ± 0.55 Å²

## ILDLKTGTVK [_ILDLK(Butyryl)TGTVK_]
[10]
  collision cross section: 361.67 ± 1.2 Å²

## SITHSTVGSKGEK [_SITHSTVGSK(Methyl (K))GEK_]
[24]
  collision cross section: 402.47 ± 1.2 Å²
[25]
  collision cross section: 466.28 ± 2.9 Å²
